What is called Kd is the concentration at which binding is half-saturated.

Substitutions are numbered along the chain they refer to. Ends that are not written are not given here.

Assay [1] deals with T1, Type I IGF receptor (UniProt P08069 31-1367).
T1 construct: also called IGF-I RECEPTOR; Insulin-like Growth Factor Receptor
In words: competitive displacement of 125I-IGF-1 from IGFR. (In general: Loss of bound radioactivity is the signal in a displacement assay; it reports binding, not function.)

Assay [2] has as its target T1, Type I IGF receptor. Kind of assay: competitive displacement of labelled tracer from IGFR. As to the method:
Receptor-Binding Assays. […] This assay employs the purified epitope-tagged receptor (IR-A, IR-B, or IGFR) using a microtiter-plate antibody-capture assay as known in the art. The epitope tag consists of three tandem repeats of the FLAG epitope. Microtiter strip plates (Nunc Maxisorb) were incubated overnight at 4° C. with anti-FLAG IgG (100 μl/well of […] in phosphate-buffered saline). Binding data were analyzed by a single-site heterologous competition binding model. A corresponding microtiter plate antibody assay using the epitope-tagged IGF Type I receptor was employed to assess cross-binding of analogues to this homologous receptor.

B1: [His^A8, Asp^B28, Pro^B29]-SCI (57-mer single-chain insulin analogue, linker GGGPRR) (ligand)
chain: FVNQHLCGSHLVEALYLVCGERGFFYTDPTGGGPRRGIVEQCCHSICSLYQLENYCN
modifications: ends and bridges not checked; cysteine pairing not given here
notes: Made by total chemical synthesis and native ligation
For B1, the dissociation constant Kd with Type I IGF receptor [1] and in the assay with Type I IGF receptor [2] was 27.6 nM each time.

B2: His^A8, Asp^B10, Asp^B28, Pro^B29 SCI (ligand)
chain: B1 chain with H10D
notes: also called SCI (His^A8, Asp^B10, Asp^B28, and Pro^B29); SCI containing the substitution Asp^B10
Molecule B2 registered an equilibrium dissociation constant (Kd) with Type I IGF receptor [2] of 9.89 nM.

(Values after patent US20110195896A1 (CASE WESTERN RESERVE UNIVERSITY, published 2011).)
